Reference: article doi:10.1101/2023.05.30.542861 (bioRxiv, 2023)

Biological target: the molecule itself
Assay: cross-linking

B1: L-Glutamate dehydrogenase from bovine liver (enzyme)
chain: not shown
stoichiometry N: 6
